Experimental findings from ChEMBL document CHEMBL3526031, “Mechanistic studies on the absorption and disposition of scutellarin in humans: selective OATP2B1-mediated hepatic uptake is a likely key determinant for its unique pharmacokinetic characteristics” (Drug Metab Dispos, 2012) are described below.

The test system of data set [1] is Homo sapiens. The experiment in a line: Drug level in human assessed as retention time treated with 40 mg, po of scutellarin measured up to 20 hrs by mass defect filter chromatogram analysis. It is filed as ADME, organism-based.
Substrate in data set [2]: O=c1cc(-c2ccc(O)cc2)oc2cc(O)c(O)c(O)c12
The experiment in a line: Drug metabolism assessed as human recombinant UGT1A10-mediated formation of scutellarein-7-O-glucuronide after 25 mins by HPLC/UV analysis. It is filed as ADME.

Substrate in data set [3]: O=c1cc(-c2ccc(O)cc2)oc2cc(O)c(O)c(O)c12
Put plainly: Drug metabolism assessed as human recombinant UGT1A10-mediated formation of scutellarein-6-O-glucuronide after 25 mins by HPLC/UV analysis. In kind it is ADME.

Substrate in data set [4]: O=c1cc(-c2ccc(O)cc2)oc2cc(O)c(O)c(O)c12
Put plainly: Drug metabolism assessed as human recombinant UGT1A6-mediated formation of scutellarein-7-O-glucuronide after 25 mins by HPLC/UV analysis. It is filed as ADME.

Substrate in data set [5]: O=C(O)[C@H]1O[C@@H](Oc2c(O)cc3oc(-c4ccc(O)cc4)cc(=O)c3c2O)[C@H](O)[C@@H](O)[C@@H]1O
The experiment in a line: Drug uptake assessed as OATP2B1 (unknown origin)-mediated drug transport expressed in HEK293 cells after 7 mins by LC-MS/MS analysis. In kind it is ADME, cell-based, Homo sapiens.

Substrate in data set [6]: O=c1cc(-c2ccc(O)cc2)oc2cc(O)c(O)c(O)c12
Put plainly: Drug metabolism assessed as human recombinant UGT1A3-mediated formation of scutellarein-7-O-glucuronide after 25 mins by HPLC/UV analysis. It is filed as ADME.

Substrate in data set [7]: O=c1cc(-c2ccc(O)cc2)oc2cc(O)c(O)c(O)c12
The experiment in a line: Drug metabolism assessed as human recombinant UGT1A7-mediated formation of scutellarein-7-O-glucuronide after 25 mins by HPLC/UV analysis. In kind it is ADME.

Substrate in data set [8]: O=c1cc(-c2ccc(O)cc2)oc2cc(O)c(O)c(O)c12
Put plainly: Drug metabolism assessed as human recombinant UGT1A8-mediated formation of scutellarein-7-O-glucuronide after 25 mins by HPLC/UV analysis. In kind it is ADME.

Substrate in data set [9]: O=c1cc(-c2ccc(O)cc2)oc2cc(O)c(O)c(O)c12
The experiment in a line: Drug metabolism assessed as human recombinant UGT2B7-mediated formation of scutellarein-6-O-glucuronide after 25 mins by HPLC/UV analysis. In kind it is ADME.

Substrate in data set [10]: O=c1cc(-c2ccc(O)cc2)oc2cc(O)c(O)c(O)c12
The experiment in a line: Drug metabolism assessed as human recombinant UGT1A9-mediated formation of scutellarein-7-O-glucuronide after 25 mins by HPLC/UV analysis. In kind it is ADME.

Substrate in data set [11]: O=c1cc(-c2ccc(O)cc2)oc2cc(O)c(O)c(O)c12
The experiment in a line: Drug metabolism assessed as human recombinant UGT1A9-mediated formation of scutellarein-6-O-glucuronide after 25 mins by HPLC/UV analysis. In kind it is ADME.

On to `O=C(O)[C@H]1O[C@@H](Oc2cc3oc(-c4ccc(O)cc4)cc(=O)c3c(O)c2O[C@@H]2O[C@H](C(=O)O)[C@@H](O)[C@H](O)[C@H]2O)[C@H](O)[C@@H](O)[C@@H]1O`, for which, in [1], the Retention_time was determined as 6.02 min.

B1: UDP-glucuronosyltransferase 1A10 (Homo sapiens) (protein)
chain: MARAGWTSPVPLCVCLLLTCGFAEAGKLLVVPMDGSHWFTMQSVVEKLILRGHEVVVVMPEVSWQLERSLNCTVKTYSTSYTLEDQNREFMVFAHAQWKAQAQSIFSLLMSSSSGFLDLFFSHCRSLFNDRKLVEYLKESSFDAVFLDPFDTCGLIVAKYFSLPSVVFTRGIFCHHLEEGAQCPAPLSYVPNDLLGFSDAMTFKERVWNHIVHLEDHLFCQYLFRNALEIASEILQTPVTAYDLYSHTSIWLLRTDFVLDYPKPVMPNMIFIGGINCHQGKPLPMEFEAYINASGEHGIVVFSLGSMVSEIPEKKAMAIADALGKIPQTVLWRYTGTRPSNLANNTILVKWLPQNDLLGHPMTRAFITHAGSHGVYESICNGVPMVMMPLFGDQMDNAKRMETKGAGVTLNVLEMTSEDLENALKAVINDKSYKENIMRLSSLHKDRPVEPLDLAVFWVEFVMRHKGAPHLRPAAHDLTWYQYHSLDVIGFLLAVVLTVAFITFKCCAYGYRKCLGKKGRVKKAHKSKTH
In general, Km refers to the concentration of substrate that gives half-maximal velocity. What is called Vmax is the rate approached at saturating substrate. Take B1: in data set [2], the Km came out at 5.68 µM, the Vmax turned out to be 0.000318 µmol/min/mg and the Vmax/Km was determined as 55.9 µL/min/mg. Also, in data set [3], the Km came to 2.74 µM, the Vmax was determined as 3.8e-05 µmol/min/mg and the Vmax/Km was 13.7 µL/min/mg.

B2: UDP-glucuronosyltransferase 1A6 (Homo sapiens) (protein)
chain: MACLLRSFQRISAGVFFLALWGMVVGDKLLVVPQDGSHWLSMKDIVEVLSDRGHEIVVVVPEVNLLLKESKYYTRKIYPVPYDQEELKNRYQSFGNNHFAERSFLTAPQTEYRNNMIVIGLYFINCQSLLQDRDTLNFFKESKFDALFTDPALPCGVILAEYLGLPSVYLFRGFPCSLEHTFSRSPDPVSYIPRCYTKFSDHMTFSQRVANFLVNLLEPYLFYCLFSKYEELASAVLKRDVDIITLYQKVSVWLLRYDFVLEYPRPVMPNMVFIGGINCKKRKDLSQEFEAYINASGEHGIVVFSLGSMVSEIPEKKAMAIADALGKIPQTVLWRYTGTRPSNLANNTILVKWLPQNDLLGHPMTRAFITHAGSHGVYESICNGVPMVMMPLFGDQMDNAKRMETKGAGVTLNVLEMTSEDLENALKAVINDKSYKENIMRLSSLHKDRPVEPLDLAVFWVEFVMRHKGAPHLRPAAHDLTWYQYHSLDVIGFLLAVVLTVAFITFKCCAYGYRKCLGKKGRVKKAHKSKTH
For the molecule B2, in data set [4], the Michaelis constant (Km) came to 27 µM, the Vmax is 0.00167 µmol/min/mg and the Vmax/Km is 62 µL/min/mg.

B3: Solute carrier organic anion transporter family member 2B1 (Homo sapiens) (protein)
chain: MGPRIGPAGEVPQVPDKETKATMGTENTPGGKASPDPQDVRPSVFHNIKLFVLCHSLLQLAQLMISGYLKSSISTVEKRFGLSSQTSGLLASFNEVGNTALIVFVSYFGSRVHRPRMIGYGAILVALAGLLMTLPHFISEPYRYDNTSPEDMPQDFKASLCLPTTSAPASAPSNGNCSSYTETQHLSVVGIMFVAQTLLGVGGVPIQPFGISYIDDFAHNSNSPLYLGILFAVTMMGPGLAFGLGSLMLRLYVDINQMPEGGISLTIKDPRWVGAWWLGFLIAAGAVALAAIPYFFFPKEMPKEKRELQFRRKVLAVTDSPARKGKDSPSKQSPGESTKKQDGLVQIAPNLTVIQFIKVFPRVLLQTLRHPIFLLVVLSQVCLSSMAAGMATFLPKFLERQFSITASYANLLIGCLSFPSVIVGIVVGGVLVKRLHLGPVGCGALCLLGMLLCLFFSLPLFFIGCSSHQIAGITHQTSAHPGLELSPSCMEACSCPLDGFNPVCDPSTRVEYITPCHAGCSSWVVQDALDNSQVFYTNCSCVVEGNPVLAGSCDSTCSHLVVPFLLLVSLGSALACLTHTPSFMLILRGVKKEDKTLAVGIQFMFLRILAWMPSPVIHGSAIDTTCVHWALSCGRRAVCRYYNNDLLRNRFIGLQFFFKTGSVICFALVLAVLRQQDKEARTKESRSSPAVEQQLLVSGPGKKPEDSRV
As to B3, the Km in data set [5] was 1.77 µM.

B4: UDP-glucuronosyltransferase 1A3 (Homo sapiens) (protein)
chain: MATGLQVPLPWLATGLLLLLSVQPWAESGKVLVVPIDGSHWLSMREVLRELHARGHQAVVLTPEVNMHIKEENFFTLTTYAISWTQDEFDRHVLGHTQLYFETEHFLKKFFRSMAMLNNMSLVYHRSCVELLHNEALIRHLNATSFDVVLTDPVNLCAAVLAKYLSIPTVFFLRNIPCDLDFKGTQCPNPSSYIPRLLTTNSDHMTFMQRVKNMLYPLALSYICHAFSAPYASLASELFQREVSVVDILSHASVWLFRGDFVMDYPRPIMPNMVFIGGINCANRKPLSQEFEAYINASGEHGIVVFSLGSMVSEIPEKKAMAIADALGKIPQTVLWRYTGTRPSNLANNTILVKWLPQNDLLGHPMTRAFITHAGSHGVYESICNGVPMVMMPLFGDQMDNAKRMETKGAGVTLNVLEMTSEDLENALKAVINDKSYKENIMRLSSLHKDRPVEPLDLAVFWVEFVMRHKGAPHLRPAAHDLTWYQYHSLDVIGFLLAVVLTVAFITFKCCAYGYRKCLGKKGRVKKAHKSKTH
Turning to B4, in data set [6], the Km was found to be 7.34 µM, the maximal velocity (Vmax) amounted to 0.00178 µmol/min/mg and the Vmax/Km worked out at 243 µL/min/mg.

B5: UDP-glucuronosyltransferase 1A7 (Homo sapiens) (protein)
chain: MARAGWTGLLPLYVCLLLTCGFAKAGKLLVVPMDGSHWFTMQSVVEKLILRGHEVVVVMPEVSWQLGRSLNCTVKTYSTSYTLEDQDREFMVFADARWTAPLRSAFSLLTSSSNGIFDLFFSNCRSLFNDRKLVEYLKESCFDAVFLDPFDACGLIVAKYFSLPSVVFARGIFCHYLEEGAQCPAPLSYVPRLLLGFSDAMTFKERVWNHIMHLEEHLFCPYFFKNVLEIASEILQTPVTAYDLYSHTSIWLLRTDFVLEYPKPVMPNMIFIGGINCHQGKPVPMEFEAYINASGEHGIVVFSLGSMVSEIPEKKAMAIADALGKIPQTVLWRYTGTRPSNLANNTILVKWLPQNDLLGHPMTRAFITHAGSHGVYESICNGVPMVMMPLFGDQMDNAKRMETKGAGVTLNVLEMTSEDLENALKAVINDKSYKENIMRLSSLHKDRPVEPLDLAVFWVEFVMRHKGAPHLRPAAHDLTWYQYHSLDVIGFLLAVVLTVAFITFKCCAYGYRKCLGKKGRVKKAHKSKTH
With B5, in [7], the Km amounted to 33.3 µM, the Vmax came out at 0.000795 µmol/min/mg and the Vmax/Km was 23.9 µL/min/mg.

B6: UDP-glucuronosyltransferase 1A8 (Homo sapiens) (protein)
chain: MARTGWTSPIPLCVSLLLTCGFAEAGKLLVVPMDGSHWFTMQSVVEKLILRGHEVVVVMPEVSWQLGKSLNCTVKTYSTSYTLEDLDREFMDFADAQWKAQVRSLFSLFLSSSNGFFNLFFSHCRSLFNDRKLVEYLKESSFDAVFLDPFDACGLIVAKYFSLPSVVFARGIACHYLEEGAQCPAPLSYVPRILLGFSDAMTFKERVRNHIMHLEEHLFCQYFSKNALEIASEILQTPVTAYDLYSHTSIWLLRTDFVLDYPKPVMPNMIFIGGINCHQGKPLPMEFEAYINASGEHGIVVFSLGSMVSEIPEKKAMAIADALGKIPQTVLWRYTGTRPSNLANNTILVKWLPQNDLLGHPMTRAFITHAGSHGVYESICNGVPMVMMPLFGDQMDNAKRMETKGAGVTLNVLEMTSEDLENALKAVINDKSYKENIMRLSSLHKDRPVEPLDLAVFWVEFVMRHKGAPHLRPAAHDLTWYQYHSLDVIGFLLAVVLTVAFITFKCCAYGYRKCLGKKGRVKKAHKSKTH
Consider B6, for which, in data set [8], the Km was 19 µM, the maximal velocity (Vmax) was determined as 0.000673 µmol/min/mg and the Vmax/Km was 35.4 µL/min/mg.

B7: UDP-glucuronosyltransferase 2B7 (Homo sapiens) (protein)
chain: MSVKWTSVILLIQLSFCFSSGNCGKVLVWAAEYSHWMNIKTILDELIQRGHEVTVLASSASILFDPNNSSALKIEIYPTSLTKTELENFIMQQIKRWSDLPKDTFWLYFSQVQEIMSIFGDITRKFCKDVVSNKKFMKKVQESRFDVIFADAIFPCSELLAELFNIPFVYSLSFSPGYTFEKHSGGFIFPPSYVPVVMSELTDQMTFMERVKNMIYVLYFDFWFEIFDMKKWDQFYSEVLGRPTTLSETMGKADVWLIRNSWNFQFPYPLLPNVDFVGGLHCKPAKPLPKEMEDFVQSSGENGVVVFSLGSMVSNMTEERANVIASALAQIPQKVLWRFDGNKPDTLGLNTRLYKWIPQNDLLGHPKTRAFITHGGANGIYEAIYHGIPMVGIPLFADQPDNIAHMKARGAAVRVDFNTMSSTDLLNALKRVINDPSYKENVMKLSRIQHDQPVKPLDRAVFWIEFVMRHKGAKHLRVAAHDLTWFQYHSLDVIGFLLVCVATVIFIVTKCCLFCFWKFARKAKKGKND
Consider B7, for which, in [9], the Km stood at 11.5 µM, the maximal velocity (Vmax) turned out to be 8.9e-05 µmol/min/mg and the Vmax/Km stood at 7.74 µL/min/mg.

B8: UDP-glucuronosyltransferase 1A9 (Homo sapiens) (protein)
chain: MACTGWTSPLPLCVCLLLTCGFAEAGKLLVVPMDGSHWFTMRSVVEKLILRGHEVVVVMPEVSWQLGRSLNCTVKTYSTSYTLEDLDREFKAFAHAQWKAQVRSIYSLLMGSYNDIFDLFFSNCRSLFKDKKLVEYLKESSFDAVFLDPFDNCGLIVAKYFSLPSVVFARGILCHYLEEGAQCPAPLSYVPRILLGFSDAMTFKERVRNHIMHLEEHLLCHRFFKNALEIASEILQTPVTEYDLYSHTSIWLLRTDFVLDYPKPVMPNMIFIGGINCHQGKPLPMEFEAYINASGEHGIVVFSLGSMVSEIPEKKAMAIADALGKIPQTVLWRYTGTRPSNLANNTILVKWLPQNDLLGHPMTRAFITHAGSHGVYESICNGVPMVMMPLFGDQMDNAKRMETKGAGVTLNVLEMTSEDLENALKAVINDKSYKENIMRLSSLHKDRPVEPLDLAVFWVEFVMRHKGAPHLRPAAHDLTWYQYHSLDVIGFLLAVVLTVAFITFKCCAYGYRKCLGKKGRVKKAHKSKTH
Consider B8, for which, in data set [10], the Km was 5.49 µM, the Vmax turned out to be 0.00463 µmol/min/mg and the Vmax/Km amounted to 843 µL/min/mg. In data set [11], the Km was 10.9 µM, the Vmax turned out to be 0.00167 µmol/min/mg and the Vmax/Km was 153 µL/min/mg.
